From patent US20260167741A1

Legend:
monomeric FcγRI (human) = monomeric FcγRI (human) (UniProt P12314); assay: BLI (Octet), antibody on FAB2G sensor, monomeric FcγR in solution
[1] = molecular target: monomeric FcγRIIIa-158V (human) (UniProt P08637); assay: as above
[2] = molecular target: monomeric FcγRIIIa-158F (human) (UniProt P08637); assay: as above
[3] = molecular target: monomeric FcγRIIa-131R (human) (UniProt P12318); assay: BLI (Octet), steady-state, antibody on FAB2G sensor
[4] = molecular target: monomeric FcγRIIb (human) (UniProt P31994); assay: as above
Chain of monomeric FcγRIIb (human) (P31994 43-217 limits assumed): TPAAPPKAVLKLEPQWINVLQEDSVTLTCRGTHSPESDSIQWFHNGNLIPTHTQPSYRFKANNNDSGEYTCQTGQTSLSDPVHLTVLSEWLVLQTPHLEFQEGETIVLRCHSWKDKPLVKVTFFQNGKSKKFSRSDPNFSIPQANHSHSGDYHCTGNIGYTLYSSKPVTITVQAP

[5] = molecular target: monomeric FcγRIIa-131H (human) (UniProt P12318); assay: as above
Chain of monomeric FcγRIIa-131H (human) (P12318 34-217 limits assumed): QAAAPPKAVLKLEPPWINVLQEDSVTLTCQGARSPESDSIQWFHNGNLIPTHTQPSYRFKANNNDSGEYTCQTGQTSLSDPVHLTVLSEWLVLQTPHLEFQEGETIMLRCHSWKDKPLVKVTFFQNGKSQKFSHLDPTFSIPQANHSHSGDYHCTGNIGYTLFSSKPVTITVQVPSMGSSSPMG

[6] = molecular target: tetrameric FcγRI-streptavidin-His labelled with Alexa647 (human) (UniProt P12314); assay: flow cytometry: SKOV-3 (HER2-expressing) cells treated with 100 nM antibody, then tetrameric FcγRI-Alexa647 (50 or 100 nM by paragraph 186, not said on the sheet)
Chain of tetrameric FcγRI-streptavidin-His labelled with Alexa647 (human) (P12314 other isoform, or with tags, fused parts or gaps limits assumed): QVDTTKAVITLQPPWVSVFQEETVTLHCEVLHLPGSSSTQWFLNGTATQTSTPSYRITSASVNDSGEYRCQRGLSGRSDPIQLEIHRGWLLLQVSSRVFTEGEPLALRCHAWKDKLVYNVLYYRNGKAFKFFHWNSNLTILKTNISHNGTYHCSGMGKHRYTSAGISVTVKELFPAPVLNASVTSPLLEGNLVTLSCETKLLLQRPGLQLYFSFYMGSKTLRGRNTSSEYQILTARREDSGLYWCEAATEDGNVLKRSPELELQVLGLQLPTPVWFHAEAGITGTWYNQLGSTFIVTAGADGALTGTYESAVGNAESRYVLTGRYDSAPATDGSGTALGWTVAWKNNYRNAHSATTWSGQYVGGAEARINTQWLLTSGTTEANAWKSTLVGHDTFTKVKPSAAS

Chain of monomeric FcγRIIIa-158F (human) (P08637 17-208 limits assumed): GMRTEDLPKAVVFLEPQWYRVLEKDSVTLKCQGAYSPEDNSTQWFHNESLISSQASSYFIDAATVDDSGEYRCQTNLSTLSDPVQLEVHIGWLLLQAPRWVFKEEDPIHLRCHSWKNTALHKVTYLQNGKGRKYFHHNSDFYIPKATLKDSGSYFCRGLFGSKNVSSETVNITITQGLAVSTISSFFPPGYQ
Chain of monomeric FcγRIIIa-158V (human) (P08637 17-208 F176V limits assumed): as the sequence (P08637 17-208 limits assumed) above, with F160V counted along it
Chain of monomeric FcγRI (human) (P12314 16-292 limits assumed): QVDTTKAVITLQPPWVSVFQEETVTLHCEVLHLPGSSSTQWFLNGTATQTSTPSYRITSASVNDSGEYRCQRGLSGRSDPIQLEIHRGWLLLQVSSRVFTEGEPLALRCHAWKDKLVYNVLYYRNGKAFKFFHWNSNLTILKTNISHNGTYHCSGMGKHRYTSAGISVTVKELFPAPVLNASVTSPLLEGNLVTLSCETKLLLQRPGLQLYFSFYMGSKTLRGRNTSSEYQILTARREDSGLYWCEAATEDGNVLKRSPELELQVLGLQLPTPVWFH
Chain of monomeric FcγRIIa-131R (human) (P12318 34-217 H167R limits assumed): as the sequence (P12318 34-217 limits assumed) above, with H134R counted along it

Kd (monomeric FcγRI (human)): 0.136 µM
koff (monomeric FcγRI (human)): 0.0203 s⁻¹
kon (monomeric FcγRI (human)): 149000 M⁻¹ s⁻¹
Kd [1]: 1.19 µM
koff [1]: 0.0833 s⁻¹
kon [1]: 70200 M⁻¹ s⁻¹
Kd [2]: 1.36 µM
koff [2]: 0.033 s⁻¹
kon [2]: 24300 M⁻¹ s⁻¹
Kd [3]: 22 µM
Kd [4]: 390 µM
Kd [5]: 38 µM
MFI [6]: 709
Substance: Trastuzumab-LALA (antibody)
